Test results taken from patent publication US20240174985A1, “METHOD FOR PRODUCING OVARIAN SOMATIC CELL-LIKE CELLS, AND METHOD FOR INDUCING DIFFERENTIATION OF PRIMATE PLURIPOTENT STEM CELLS INTO OVARIAN SOMATIC CELL-LIKE CELLS” (Kyoto University, priority 2021, published 2024).

Assays:
Format in all cases: cell-based
human iPS cells [1] = test: Quantitative PCR of marker genes in cells induced from human iPS cells; conditions: Activin A 10 ng/mL added between day 2 and day 4, fibronectin plane culture
From the text: The relative expression level of each marker gene was confirmed using a PCR apparatus (BIO-RAD CFX384 Real-Time System) with the following primers and conditions. In the tables, the PPIA gene and the RPLP0 gene were used as housekeeping genes. The difference in qPCR is a difference from the average value taken as “(PPIA+RPLP0)/2”. In addition, the ERCC gene was used as an absolute control between samples.

human iPS cells [2] = test: Induction of differentiation from human iPS cells into ovarian somatic cell-like cells (FACS of OSR1-tdTomato/NR5A1-EGFP reporters, observation of embryoid bodies); conditions: Activin A 10 ng/ml added between day 2 and day 4
From the text: In order to conveniently observe the expression of genes typical at each developmental stage, a human iPS cell line 1390G3 was genetically modified, and a DNA sequence that emits red fluorescence (tdTomato) with the expression of the OSR1 gene, green fluorescence (EGFP) with the expression of the NR5A1 gene, and red fluorescence (tdTomato) with the expression of the FOXL2 gene was manufactured (see FIG. 1, and after introduction into the chromosome, a portion of “PGKp-Neo (or Puro)-pA” portion was deleted with Cre). An iPS cell line into which two DNA sequences of OSR1 and NR5A1 had been introduced (which may be hereinafter abbreviated as “OTNG”), and an iPS cell line into which two DNA sequences of NR5A1 and FOXL2 had been introduced (which may be hereinafter abbreviated as “NGFT”) were manufactured. In the present test, the OTNG strain was used in most of the experiments. Furthermore, NR5A1 and SF1 are the same gene.
The cells at each stage were analyzed using a flow cytometer (BD FACSAria III).
The ES cells of monkeys and human iPS cells are considered to be similar to EpiLC in a slightly advanced state in terms of differentiation, as compared with mouse ES cells. Therefore, in the examination using monkey or human pluripotent stem cells in the present test, step 0 was omitted and the process was started from step 1. […]

[3] = test system: cynomolgus monkey ES cells

B1: Activin A: TGF-β family member produced by multiple cell species during development (protein, UniProt P08476 311-426, looked up)
Inhibin beta A chain: GLECDGKVNICCKKQFFVSFKDIGWNDWIIAPSGYHANYCEGECPSHIAGTSGSSLSFHSTVINHYRMRGHSPFANLKSCCVPTKLRPMSMLYYDDGQNIIKKDIQNMIVEECGCS
expression of GATA3 and HOXB9 (human iPS cells [1]; day 15): decreased
expression of FOXL2 (human iPS cells [1]; day 27): almost equivalent to that in the ovarian somatic cells collected from the living body
proportion of the OSR1− (negative) and SF1+ (positive) cells (human iPS cells [2]; plane culture, FACS day 15): further increased
size of the embryoid bodies (human iPS cells [2]; step 1 plane culture on fibronectin-coated plate): increased over time
expression of OSR1 ([3]; added in step 1: bFGF 50 ng/mL entire period, Activin A 10 ng/ml one day from day 1, FACS days 2, 4, 6): acted toward enhancing the expression of OSR1
improvement of induction ([3]; addition of Activin A after day 1 of step 1, FACS days 16 and 28): no improvement was observed
improvement of the induction of NR5A1-positive cells ([3]; bFGF 50 ng/ml and Activin A 10 ng/ml (only from day 1) in step 1, days 14 and 21): not recognized
